Data reported in patent US20140072613A1, “Compositions and Methods for Treating Cutaneous Scarring” (priority 2012, published 2014).

What was measured:
Assay in all cases: cell-based or functional assay
[1] = molecular target: PKCα(h) (human) (UniProt P17252)
[2] = molecular target: FGFR4(h) (human) (UniProt P22455)
[3] = molecular target: EphA7(h) (human) (UniProt Q15375)
[4] = molecular target: Ron(h) (human) (UniProt Q04912)
[5] = molecular target: PASK(h) (human) (UniProt Q96RG2)
[6] = molecular target: ACK1(h) (human) (UniProt Q07912)
Chain of ACK1(h) (human) (Q07912 110-476 limits assumed): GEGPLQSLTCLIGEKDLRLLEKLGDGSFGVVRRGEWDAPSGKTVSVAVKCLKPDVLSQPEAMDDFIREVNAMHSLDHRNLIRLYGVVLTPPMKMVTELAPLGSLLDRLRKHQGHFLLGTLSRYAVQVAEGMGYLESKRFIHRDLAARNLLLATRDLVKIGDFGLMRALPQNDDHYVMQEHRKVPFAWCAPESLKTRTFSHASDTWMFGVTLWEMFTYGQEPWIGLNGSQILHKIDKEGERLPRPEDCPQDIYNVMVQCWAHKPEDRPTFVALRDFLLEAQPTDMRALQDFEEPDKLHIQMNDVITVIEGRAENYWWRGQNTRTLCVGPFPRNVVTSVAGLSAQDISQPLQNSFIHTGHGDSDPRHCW

[7] = molecular target: Met(D1246N)(h) (human) (UniProt P08581)
[8] = molecular target: T1, Ret(h) (human) (UniProt P07949)
T1 sequence (looked up): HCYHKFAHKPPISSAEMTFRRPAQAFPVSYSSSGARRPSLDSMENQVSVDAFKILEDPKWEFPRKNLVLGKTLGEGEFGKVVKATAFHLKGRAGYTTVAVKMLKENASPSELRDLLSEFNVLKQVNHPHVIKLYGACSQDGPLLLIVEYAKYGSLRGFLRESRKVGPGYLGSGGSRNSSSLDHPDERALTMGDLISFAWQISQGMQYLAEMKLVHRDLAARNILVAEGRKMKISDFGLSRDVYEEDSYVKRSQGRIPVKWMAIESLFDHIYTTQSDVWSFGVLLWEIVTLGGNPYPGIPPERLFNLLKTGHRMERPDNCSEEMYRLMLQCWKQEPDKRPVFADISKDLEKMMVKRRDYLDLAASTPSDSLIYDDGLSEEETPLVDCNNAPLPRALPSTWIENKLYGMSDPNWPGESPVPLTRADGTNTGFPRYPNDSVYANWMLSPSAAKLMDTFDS

[9] = molecular target: Pim-1(h) (human) (UniProt P11309)
Chain of Pim-1(h) (human) (P11309 whole entry): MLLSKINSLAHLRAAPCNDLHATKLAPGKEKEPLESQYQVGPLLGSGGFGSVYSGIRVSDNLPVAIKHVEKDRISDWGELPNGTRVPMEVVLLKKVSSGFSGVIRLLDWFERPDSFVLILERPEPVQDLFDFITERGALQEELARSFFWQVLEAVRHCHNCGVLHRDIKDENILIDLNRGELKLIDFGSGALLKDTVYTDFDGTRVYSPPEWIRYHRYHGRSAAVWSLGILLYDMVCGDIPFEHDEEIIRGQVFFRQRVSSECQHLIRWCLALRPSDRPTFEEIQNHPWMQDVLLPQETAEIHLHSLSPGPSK

[10] = molecular target: T2, TAO1(h) (human) (UniProt Q7L7X3)
T2 sequence (looked up): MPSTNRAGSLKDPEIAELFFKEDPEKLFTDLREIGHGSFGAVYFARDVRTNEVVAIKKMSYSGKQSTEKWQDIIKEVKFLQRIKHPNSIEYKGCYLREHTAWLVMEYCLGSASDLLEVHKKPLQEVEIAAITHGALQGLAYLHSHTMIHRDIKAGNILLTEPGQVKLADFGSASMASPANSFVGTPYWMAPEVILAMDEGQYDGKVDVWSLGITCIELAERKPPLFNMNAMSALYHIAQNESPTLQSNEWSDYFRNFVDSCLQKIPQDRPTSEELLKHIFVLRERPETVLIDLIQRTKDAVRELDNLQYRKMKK

[11] = molecular target: T3, SAPK4(h) (human) (UniProt O15264)
T3 sequence (looked up): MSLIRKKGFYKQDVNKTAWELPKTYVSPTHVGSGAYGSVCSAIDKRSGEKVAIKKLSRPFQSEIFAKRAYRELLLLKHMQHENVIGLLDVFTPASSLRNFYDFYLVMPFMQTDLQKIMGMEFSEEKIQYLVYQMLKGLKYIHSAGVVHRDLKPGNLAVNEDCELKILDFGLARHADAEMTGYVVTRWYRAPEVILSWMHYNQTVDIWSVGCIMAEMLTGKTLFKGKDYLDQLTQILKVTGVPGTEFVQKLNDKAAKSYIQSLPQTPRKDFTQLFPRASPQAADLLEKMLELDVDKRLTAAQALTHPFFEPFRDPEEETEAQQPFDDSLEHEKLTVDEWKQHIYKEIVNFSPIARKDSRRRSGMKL

[12] = molecular target: T4, NEK3(h) (human) (UniProt P51956)
T4 sequence (looked up): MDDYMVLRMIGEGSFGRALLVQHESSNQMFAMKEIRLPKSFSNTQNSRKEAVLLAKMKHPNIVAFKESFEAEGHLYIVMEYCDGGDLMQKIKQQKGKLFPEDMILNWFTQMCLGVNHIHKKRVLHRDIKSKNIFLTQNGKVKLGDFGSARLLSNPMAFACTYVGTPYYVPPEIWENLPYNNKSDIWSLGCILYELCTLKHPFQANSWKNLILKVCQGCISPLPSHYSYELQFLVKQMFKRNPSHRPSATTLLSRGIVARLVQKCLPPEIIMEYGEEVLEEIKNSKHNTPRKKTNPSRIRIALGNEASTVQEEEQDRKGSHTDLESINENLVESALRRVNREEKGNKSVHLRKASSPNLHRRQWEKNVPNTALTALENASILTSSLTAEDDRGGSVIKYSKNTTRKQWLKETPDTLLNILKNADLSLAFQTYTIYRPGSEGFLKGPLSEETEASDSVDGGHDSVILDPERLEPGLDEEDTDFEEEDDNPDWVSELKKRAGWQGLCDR

[13] = molecular target: PKCι(h) (human) (UniProt P41743)
[14] = molecular target: PKCε(h) (human) (UniProt Q02156)
Chain of PKCε(h) (human) (Q02156 whole entry): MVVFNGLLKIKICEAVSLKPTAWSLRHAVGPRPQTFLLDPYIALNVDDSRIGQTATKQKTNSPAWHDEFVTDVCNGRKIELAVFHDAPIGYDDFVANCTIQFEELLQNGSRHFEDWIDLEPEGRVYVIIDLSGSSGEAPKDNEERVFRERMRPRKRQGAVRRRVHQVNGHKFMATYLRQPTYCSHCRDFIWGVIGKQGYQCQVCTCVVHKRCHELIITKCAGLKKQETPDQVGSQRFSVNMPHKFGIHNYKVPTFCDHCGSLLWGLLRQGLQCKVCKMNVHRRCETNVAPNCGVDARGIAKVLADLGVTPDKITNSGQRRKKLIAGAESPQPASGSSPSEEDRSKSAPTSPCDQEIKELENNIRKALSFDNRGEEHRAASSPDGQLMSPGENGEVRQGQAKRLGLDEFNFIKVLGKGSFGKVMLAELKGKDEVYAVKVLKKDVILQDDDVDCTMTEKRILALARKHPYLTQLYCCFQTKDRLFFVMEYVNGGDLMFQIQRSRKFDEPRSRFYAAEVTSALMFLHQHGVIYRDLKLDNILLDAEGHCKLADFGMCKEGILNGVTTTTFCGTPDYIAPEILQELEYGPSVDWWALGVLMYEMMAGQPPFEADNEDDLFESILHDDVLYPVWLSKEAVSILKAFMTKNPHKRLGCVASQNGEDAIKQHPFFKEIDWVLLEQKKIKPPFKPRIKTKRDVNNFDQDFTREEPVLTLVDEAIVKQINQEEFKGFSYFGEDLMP

[15] = molecular target: T5, IRAK4(h) (human) (UniProt Q9NWZ3)
T5 sequence (looked up): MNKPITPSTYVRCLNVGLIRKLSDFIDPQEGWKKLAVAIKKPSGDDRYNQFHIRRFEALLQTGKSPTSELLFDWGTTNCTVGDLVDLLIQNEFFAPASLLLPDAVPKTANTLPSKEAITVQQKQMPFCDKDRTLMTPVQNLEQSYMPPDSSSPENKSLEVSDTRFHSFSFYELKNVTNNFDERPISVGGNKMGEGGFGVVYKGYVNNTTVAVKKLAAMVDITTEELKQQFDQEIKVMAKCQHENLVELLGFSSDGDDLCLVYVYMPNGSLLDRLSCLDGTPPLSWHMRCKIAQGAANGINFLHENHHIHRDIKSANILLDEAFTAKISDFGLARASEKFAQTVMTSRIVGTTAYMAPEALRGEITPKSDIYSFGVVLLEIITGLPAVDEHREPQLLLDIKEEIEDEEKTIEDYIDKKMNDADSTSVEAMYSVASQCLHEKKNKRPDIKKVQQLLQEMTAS

[16] = molecular target: cKit(D816H)(h) (human) (UniProt P10721)
Chain of cKit(D816H)(h) (human) (P10721 544-976 D816H): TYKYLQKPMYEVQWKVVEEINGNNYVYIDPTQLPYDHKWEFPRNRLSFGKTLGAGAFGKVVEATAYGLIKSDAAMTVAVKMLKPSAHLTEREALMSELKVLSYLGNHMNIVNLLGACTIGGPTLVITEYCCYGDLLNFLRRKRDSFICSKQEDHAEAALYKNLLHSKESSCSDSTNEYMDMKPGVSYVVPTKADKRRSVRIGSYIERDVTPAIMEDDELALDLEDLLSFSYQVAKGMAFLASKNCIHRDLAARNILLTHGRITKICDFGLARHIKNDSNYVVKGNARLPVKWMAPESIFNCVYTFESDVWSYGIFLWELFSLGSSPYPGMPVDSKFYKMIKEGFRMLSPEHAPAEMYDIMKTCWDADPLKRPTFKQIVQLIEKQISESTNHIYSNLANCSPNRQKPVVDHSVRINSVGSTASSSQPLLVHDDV

[17] = molecular target: mTOR/FKBP12(h) (human) (UniProt P42345)
Chain of mTOR/FKBP12(h) (human) (P42345 1362-2549 limits assumed, chain 1 of 2): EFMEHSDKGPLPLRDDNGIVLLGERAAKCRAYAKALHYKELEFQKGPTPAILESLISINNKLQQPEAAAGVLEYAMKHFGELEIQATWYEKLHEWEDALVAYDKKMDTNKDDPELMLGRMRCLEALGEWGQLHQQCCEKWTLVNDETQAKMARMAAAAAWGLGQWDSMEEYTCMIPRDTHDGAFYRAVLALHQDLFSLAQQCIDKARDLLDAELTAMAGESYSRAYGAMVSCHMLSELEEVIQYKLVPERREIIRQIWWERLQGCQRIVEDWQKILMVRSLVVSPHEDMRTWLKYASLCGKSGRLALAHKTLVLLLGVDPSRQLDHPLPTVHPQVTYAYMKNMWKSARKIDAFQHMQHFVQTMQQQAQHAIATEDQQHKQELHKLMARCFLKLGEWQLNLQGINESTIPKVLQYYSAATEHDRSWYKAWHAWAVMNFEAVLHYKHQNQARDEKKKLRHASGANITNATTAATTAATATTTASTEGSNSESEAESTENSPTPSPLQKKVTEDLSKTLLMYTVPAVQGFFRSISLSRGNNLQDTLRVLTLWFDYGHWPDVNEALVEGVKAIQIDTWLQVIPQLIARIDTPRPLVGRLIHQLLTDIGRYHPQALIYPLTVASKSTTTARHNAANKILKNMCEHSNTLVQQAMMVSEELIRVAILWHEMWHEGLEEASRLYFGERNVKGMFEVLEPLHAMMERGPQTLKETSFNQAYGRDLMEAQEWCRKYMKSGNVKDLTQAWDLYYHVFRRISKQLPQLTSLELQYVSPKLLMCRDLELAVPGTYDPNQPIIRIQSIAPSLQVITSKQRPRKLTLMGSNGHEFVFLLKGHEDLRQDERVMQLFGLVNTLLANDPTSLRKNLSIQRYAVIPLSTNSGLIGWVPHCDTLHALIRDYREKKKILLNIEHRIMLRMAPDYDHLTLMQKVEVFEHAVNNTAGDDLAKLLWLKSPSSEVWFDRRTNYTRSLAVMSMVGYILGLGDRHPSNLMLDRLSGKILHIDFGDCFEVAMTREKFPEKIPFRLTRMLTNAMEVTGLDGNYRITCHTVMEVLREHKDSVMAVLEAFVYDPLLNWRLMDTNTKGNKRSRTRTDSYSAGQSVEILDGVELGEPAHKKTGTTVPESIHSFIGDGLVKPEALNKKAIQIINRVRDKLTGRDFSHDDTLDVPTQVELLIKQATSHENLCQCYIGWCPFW
Chain of mTOR/FKBP12(h) (human) (P62942 whole entry, chain 2 of 2, further chain): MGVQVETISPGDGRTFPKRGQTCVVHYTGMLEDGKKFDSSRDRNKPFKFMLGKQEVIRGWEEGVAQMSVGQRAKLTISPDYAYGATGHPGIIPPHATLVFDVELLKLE

[18] = molecular target: Tie2(h) (human) (UniProt Q02763)

Chain of EphA7(h) (human) (Q15375 577-998 limits assumed): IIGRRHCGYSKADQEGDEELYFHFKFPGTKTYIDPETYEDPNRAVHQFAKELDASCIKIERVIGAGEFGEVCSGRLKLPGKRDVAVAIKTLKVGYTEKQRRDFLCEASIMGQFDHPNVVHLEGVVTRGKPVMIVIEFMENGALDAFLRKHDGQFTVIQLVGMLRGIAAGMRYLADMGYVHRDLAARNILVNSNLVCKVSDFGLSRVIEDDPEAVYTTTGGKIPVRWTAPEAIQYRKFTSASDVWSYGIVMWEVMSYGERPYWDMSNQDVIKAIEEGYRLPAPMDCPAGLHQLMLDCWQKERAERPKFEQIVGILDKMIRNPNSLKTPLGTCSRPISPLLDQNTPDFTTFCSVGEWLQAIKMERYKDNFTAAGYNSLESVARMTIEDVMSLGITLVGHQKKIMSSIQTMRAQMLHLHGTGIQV
Chain of PASK(h) (human) (Q96RG2 879-1323 limits assumed): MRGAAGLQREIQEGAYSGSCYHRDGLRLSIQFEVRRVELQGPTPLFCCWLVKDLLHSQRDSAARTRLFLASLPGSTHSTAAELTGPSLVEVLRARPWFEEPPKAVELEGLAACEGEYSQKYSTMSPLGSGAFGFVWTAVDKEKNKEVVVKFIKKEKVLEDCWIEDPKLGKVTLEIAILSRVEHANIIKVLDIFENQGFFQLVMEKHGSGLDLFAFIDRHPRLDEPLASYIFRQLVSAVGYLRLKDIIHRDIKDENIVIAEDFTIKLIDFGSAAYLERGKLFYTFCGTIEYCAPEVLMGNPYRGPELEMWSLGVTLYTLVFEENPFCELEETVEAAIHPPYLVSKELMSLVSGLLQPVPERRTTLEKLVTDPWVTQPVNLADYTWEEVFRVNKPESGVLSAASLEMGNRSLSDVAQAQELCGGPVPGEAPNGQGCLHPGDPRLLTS
Chain of FGFR4(h) (human) (P22455 460-802 limits assumed): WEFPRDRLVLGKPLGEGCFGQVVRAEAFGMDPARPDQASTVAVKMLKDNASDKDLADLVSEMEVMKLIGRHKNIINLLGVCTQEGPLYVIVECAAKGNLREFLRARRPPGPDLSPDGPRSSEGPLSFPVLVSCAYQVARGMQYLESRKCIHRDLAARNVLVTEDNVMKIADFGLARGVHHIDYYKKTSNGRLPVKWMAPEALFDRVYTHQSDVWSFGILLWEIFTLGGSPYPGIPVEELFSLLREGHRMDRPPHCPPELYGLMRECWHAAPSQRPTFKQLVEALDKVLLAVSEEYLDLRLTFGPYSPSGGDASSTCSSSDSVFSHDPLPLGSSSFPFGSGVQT
Chain of Ron(h) (human) (Q04912 983-1400 limits assumed): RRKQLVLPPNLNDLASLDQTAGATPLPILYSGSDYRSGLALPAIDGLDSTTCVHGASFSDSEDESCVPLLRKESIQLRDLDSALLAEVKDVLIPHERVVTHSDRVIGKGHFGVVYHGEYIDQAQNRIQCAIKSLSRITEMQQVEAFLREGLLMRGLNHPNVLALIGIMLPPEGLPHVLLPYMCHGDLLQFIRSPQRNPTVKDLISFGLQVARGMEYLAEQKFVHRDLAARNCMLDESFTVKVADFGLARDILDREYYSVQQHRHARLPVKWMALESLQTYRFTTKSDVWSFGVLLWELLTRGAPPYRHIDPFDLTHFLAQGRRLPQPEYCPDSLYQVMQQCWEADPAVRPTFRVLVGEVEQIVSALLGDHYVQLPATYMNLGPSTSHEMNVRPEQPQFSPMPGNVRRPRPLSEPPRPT

## MMI-0500 (peptide)
[1]
  % activity, 100 µM: 3%
[2]
  % activity, 100 µM: 3%
[3]
  % activity, 100 µM: 189%
[4]
  % activity, 100 µM: 46%
[5]
  % activity, 100 µM: 9%
[6]
  % activity, 100 µM: 64%
[7]
  % activity, 100 µM: 90%
[8]
  % activity, 100 µM: 174%
[9]
  % activity, 100 µM: 0%
[10]
  % activity, 100 µM: 24%
[11]
  % activity, 100 µM: 48%
[12]
  % activity, 100 µM: 20%
[13]
  % activity, 100 µM: 7%
[14]
  % activity, 100 µM: 23%
[15]
  % activity, 100 µM: 3%
[16]
  % activity, 100 µM: 194%
[17]
  % activity, 100 µM: 140%
[18]
  % activity, 100 µM: 22%
